The record followed here is paper doi:10.1101/2021.10.01.462734.

“And” between values parts separate entries of the source, which are not always exact repeats. Identical values can stand only once.

Test [1] addresses ancGR2-LBD (ancient variant of the glucocorticoid receptor ligand-binding domain), wild type, DEX-bound. In words: SPR. Background: SPR reads the build-up and loss of mass on a sensor chip optically.
The target is the same in test [2]. In words: cross-linking.
The target of test [3] is ancGR2-LBD Y545C mutant, DEX-bound. Kind of test: SPR.
Test [4] has the same target. Kind of test: cross-linking.
Test [5] deals with GFP-mGR Y545A (mouse). Kind of test: number and brightness.
In test [6] the target is GFP-mGR GR^dim/Y545A double mutant (mouse). Kind of test: number and brightness.

Take “ancGR2-LBD (ancient variant of the glucocorticoid receptor ligand-binding domain), wild type, DEX-bound (domain or fragment)”: in test [1], the equilibrium dissociation constant (Kd) – broadly, the constant that tells how readily two partners part at equilibrium – is 15.3 µM; the kD1 (multisite model, first of two independent binding sites) was determined as 2.2 µM; the kD2 (multisite model, second of two independent binding sites) amounted to 27.9 µM. For the same substance, the stoichiometry N (usually the number of molecules, sites or subunits per partner or assembly) in test [2] is 2 and 4.
“ancGR2-LBD Y545C mutant, DEX-bound (domain or fragment)”: the kD1 (multisite model, first binding site) in test [3] was 0.8 µM. The stoichiometry N in test [4] came out at 2.
In turn, GFP-mGR Y545A (natural protein) yielded a stoichiometry N in test [5] of 4.
“GFP-mGR GR^dim/Y545A double mutant (natural protein)”: the stoichiometry N in test [6] was found to be 3.
